Assay results reported in PMC5446404 (2017).

B1: GST-IRE1α-C (aa 468-977) (domain or fragment)
chain: MHQQQQLQHQQFQKELEKIQLLQQQQQQLPFHPPGDTAQDGELLDTSGPYSESSGTSSPSTSPRASNHSLCSGSSASKAGSSPSLEQDDGDEETSVVIVGKISFCPKDVLGHGAEGTIVYRGMFDNRDVAVKRILPECFSFADREVQLLRESDEHPNVIRYFCTEKDRQFQYIAIELCAATLQEYVEQKDFAHLGLEPITLLQQTTSGLAHLHSLNIVHRDLKPHNILISMPNAHGKIKAMISDFGLCKKLAVGRHSFSRRSGVPGTEGWIAPEMLSEDCKENPTYTVDIFSAGCVFYYVISEGSHPFGKSLQRQANILLGACSLDCLHPEKHEDVIARELIEKMIAMDPQKRPSAKHVLKHPFFWSLEKQLQFFQDVSDRIEKESLDGPIVKQLERGGRAVVKMDWRENITVPLQTDLRKFRTYKGGSVRDLLRAMRNKKHHYRELPAEVRETLGSLPDDFVCYFTSRFPHLLAHTYRAMELCSHERLFQPYYFHEPPEPQPPVTPDAL
B2: GST-IRE1α-TM (aa 401-500) (domain or fragment)
chain: EEVINLVDQTSENAPTTVSRDVEEKPAHAPARPEAPVDSMLKDMATIILSTFLLIGWVAFIITYPLSMHQQQQLQHQQFQKELEKIQLLQQQQQQLPFHP
B3: de-phosphorylated IRE1α-Myc-DDK (aa 1-977) (natural protein)
chain: IFGSTSTVTLPETLLFVSTLDGSLHAVSKRTGSIKWTLKEDPVLQVPTHVEEPAFLPDPNDGSLYTLGSKNNEGLTKLPFTIPELVQASPCRSSDGILYMGKKQDIWYVIDLLTGEKQQTLSSAFADSLCPSTSLLYLGRTEYTITMYDTKTRELRWNATYFDYAASLPEDDVDYKMSHFVSNGDGLVVTVDSESGDVLWIQNYASPVVAFYVWQREGLRKVMHINVAVETLRYLTFMSGEVGRITKWKYPFPKETEAKSKLTPTLYVGKYSTSLYASPSMVHEGVAVVPRGSTLPLLEGPQTDGVTIGDKGECVITPSTDVKFDPGLKSKNKLNYLRNYWLLIGHHETPLSASTKMLERFPNNLPKHRENVIPADSEKKSFEEVINLVDQTSENAPTTVSRDVEEKPAHAPARPEAPVDSMLKDMATIILSTFLLIGWVAFIITYPLSMHQQQQLQHQQFQKELEKIQLLQQQQQQLPFHPPGDTAQDGELLDTSGPYSESSGTSSPSTSPRASNHSLCSGSSASKAGSSPSLEQDDGDEETSVVIVGKISFCPKDVLGHGAEGTIVYRGMFDNRDVAVKRILPECFSFADREVQLLRESDEHPNVIRYFCTEKDRQFQYIAIELCAATLQEYVEQKDFAHLGLEPITLLQQTTSGLAHLHSLNIVHRDLKPHNILISMPNAHGKIKAMISDFGLCKKLAVGRHSFSRRSGVPGTEGWIAPEMLSEDCKENPTYTVDIFSAGCVFYYVISEGSHPFGKSLQRQANILLGACSLDCLHPEKHEDVIARELIEKMIAMDPQKRPSAKHVLKHPFFWSLEKQLQFFQDVSDRIEKESLDGPIVKQLERGGRAVVKMDWRENITVPLQTDLRKFRTYKGGSVRDLLRAMRNKKHHYRELPAEVRETLGSLPDDFVCYFTSRFPHLLAHTYRAMELCSHERLFQPYYFHEPPEPQPPVTPDAL
B4: recombinant human phospho-IRE1α-Myc-DDK (aa 1-977) (natural protein)
chain: B3 chain
modifications: phosphorylated (sites not stated for this preparation)

Assays:
[1] = biological target: T1, recombinant human fortilin (Strep-tag II), biotinylated (human, UniProt P13693 1-172, biotinylated (sites not given)); experiment: BLI
T1 chain: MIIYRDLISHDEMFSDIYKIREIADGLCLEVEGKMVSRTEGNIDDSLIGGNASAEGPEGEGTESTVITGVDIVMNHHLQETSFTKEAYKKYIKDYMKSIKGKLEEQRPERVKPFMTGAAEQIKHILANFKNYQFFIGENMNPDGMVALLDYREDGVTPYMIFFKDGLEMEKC

[2] = biological target: T1, recombinant human fortilin (Strep-tag …); experiment: BLI; dephosphorylated IRE1α
[3] = biological target: T1, recombinant human fortilin (Strep-tag …); experiment: BLI; phosphorylated IRE1α

Binder	Kd [1]	further results
B1	0.00067 mM	–
B2	4.19 mM	–
B3	–	Kd [2]: 1050 nM
B4	–	Kd [3]: 320 nM
